Assay results taken from patent publication US20220062415A1, “Methods of Treating Multiple Myeloma” (Janssen Biotech, Inc., priority 2018, published 2022).
Read-outs that look alike come from different tables or passages of the source.

Key:
[1] = Phase 3 Study: daratumumab serum pharmacokinetics; type: in vivo, human; conditions: daratumumab 16 mg/kg in D-VMP
Excerpt: (§1) Clinical pharmacology information provided herein focuses on data from subjects with evaluable pharmacokinetic data treated with D-VMP in the Phase 3 Study (n=342), and supportive information derived from the Phase 1b Study in the cohort of subjects treated with D-VMP having evaluable pharmacokinetic data (n=11). In addition, an updated population pharmacokinetics (PPK) analysis including data from the Phase 3 and Phase 1b Studies and exposure-response (efficacy and safety) analyses including data from Phase 3 Study were conducted.

[2] = in vivo
Excerpt: The first subject in this cohort started treatment with D-VMP. Subjects in the D-VMP cohort of the Phase 1b Study received treatment for a maximum of 9 cycles. Long-term follow-up for this cohort continued until death, loss to follow up, withdrawal of consent, or study end, whichever occurred first. The primary objective for the Phase 1b Study was to evaluate safety and tolerability of the combination regimen. Efficacy assessments (primary efficacy endpoint, overall response rate (ORR)) were performed per International Myeloma Working Group (IMWG) guidelines (Kumar S, et al. Lancet Oncol. 2016;17(8):e328-e346, hereby incorporated by reference in its entirety), and a computerized, validated algorithm as described above was utilized for determining response based on IMWG criteria.
as §1

[3] = Pooled infusion-related reaction analysis, 1,166 subjects treated with daratumumab 16 mg/kg IV; type: in vivo, human
[4] = in vivo; remark: listed apart in the source
[5] = cited from earlier work
[6] = mean±SD, cited from earlier work

daratumumab
mean end-of-infusion concentration following the first dose [1]: 266.7 µg/mL | mean end-of-infusion concentration following the first dose [2]: 332.2 µg/mL | Grade 4 IRRs ([3]; 2 of 1,166 subjects): 0.2% | incidence of any grade IRR ([3]; first infusion, pooled 1,166 subjects): 40% | incidence of infusion modification due to IRRs ([3]; pooled): 37% | incidence of any grade IRR ([3]; second infusion, pooled): 2% | subjects with a Grade 3 IRR ([3]; second or subsequent infusion, pooled): < 1% | incidence of any grade IRR ([3]; subsequent infusions, pooled): 4% | model-derived half-life associated with the CL ([4]; human): approximately 22.1±9.7 days | estimated Vi value [4]: approached plasma volume | time to apparent steady state [4]: approximately 5 months | mean maximum trough concentration ([5]; after 8 weekly doses, monotherapy): 573.5 µg/mL | mean end-of-infusion concentration following the first dose ([5]; daratumumab monotherapy, Phase 2 study): 312.5 µg/mL | increase in daratumumab compared with the first dose ([5]; end of 8 weekly doses of monotherapy): 2.9 fold | half-life ([6]; monotherapy study data): 18 ± 9 days | half-life ([6]; previous combination therapy study data): 23.3 ± 11.8 days
